Results taken from publication PMC3326396 (Biochemistry, 2012).

Target: the molecule itself
Experiment: SEC

B1: N-terminal Strep2-(G4S)3-tagged PhaC purified from R. eutropha (enzyme, Ralstonia eutropha H16, UniProt P23608 2-589, looked up)
chain: ATGKGAAASTQEGKSQPFKVTPGPFDPATWLEWSRQWQGTEGNGHAAASGIPGLDALAGVKIAPAQLGDIQQRYMKDFSALWQAMAEGKAEATGPLHDRRFAGDAWRTNLPYRFAAAFYLLNARALTELADAVEADAKTRQRIRFAISQWVDAMSPANFLATNPEAQRLLIESGGESLRAGVRNMMEDLTRGKISQTDESAFEVGRNVAVTEGAVVFENEYFQLLQYKPLTDKVHARPLLMVPPCINKYYILDLQPESSLVRHVVEQGHTVFLVSWRNPDASMAGSTWDDYIEHAAIRAIEVARDISGQDKINVLGFCVGGTIVSTALAVLAARGEHPAASVTLLTTLLDFADTGILDVFVDEGHVQLREATLGGGAGAPCALLRGLELANTFSFLRPNDLVWNYVVDNYLKGNTPVPFDLLFWNGDATNLPGPWYCWYLRHTYLQNELKVPGKLTVCGVPVDLASIDVPTYIYGSREDHIVPWTAAYASTALLANKLRFVLGASGHIAGVINPPAKNKRSHWTNDALPESPQQWLAGAIEHHGSWWPDWTAWLAGQAGAKRAAPANYGNARYRAIEPAPGRYVKAKA
  stoichiometry N: 2

B2: N-terminal-Strep2-(G4S)3-tagged PhaC purified from E. coli (enzyme, Ralstonia eutropha H16, UniProt P23608 2-589, looked up)
chain: ATGKGAAASTQEGKSQPFKVTPGPFDPATWLEWSRQWQGTEGNGHAAASGIPGLDALAGVKIAPAQLGDIQQRYMKDFSALWQAMAEGKAEATGPLHDRRFAGDAWRTNLPYRFAAAFYLLNARALTELADAVEADAKTRQRIRFAISQWVDAMSPANFLATNPEAQRLLIESGGESLRAGVRNMMEDLTRGKISQTDESAFEVGRNVAVTEGAVVFENEYFQLLQYKPLTDKVHARPLLMVPPCINKYYILDLQPESSLVRHVVEQGHTVFLVSWRNPDASMAGSTWDDYIEHAAIRAIEVARDISGQDKINVLGFCVGGTIVSTALAVLAARGEHPAASVTLLTTLLDFADTGILDVFVDEGHVQLREATLGGGAGAPCALLRGLELANTFSFLRPNDLVWNYVVDNYLKGNTPVPFDLLFWNGDATNLPGPWYCWYLRHTYLQNELKVPGKLTVCGVPVDLASIDVPTYIYGSREDHIVPWTAAYASTALLANKLRFVLGASGHIAGVINPPAKNKRSHWTNDALPESPQQWLAGAIEHHGSWWPDWTAWLAGQAGAKRAAPANYGNARYRAIEPAPGRYVKAKA
  stoichiometry N: 2
